Test results from PMC5268738, “A sequential multi-target Mps1 phosphorylation cascade promotes spindle checkpoint signaling” (eLife, 2017).

Target: scMad1^E–scMad2 complex (S. cerevisiae) (UniProt P40957)
Test: ITC; 20°C; 25 mM HEPES pH 7.5, 150 mM NaCl; scMad1 proteins (20 µM) in the cell; scBub1 phospho-peptides or phosphorylated scBub1_(449–530) (300 µM) injected

Sequence of scMad1^E–scMad2 complex (S. cerevisiae) (P40957 whole entry, chain 1 of 2): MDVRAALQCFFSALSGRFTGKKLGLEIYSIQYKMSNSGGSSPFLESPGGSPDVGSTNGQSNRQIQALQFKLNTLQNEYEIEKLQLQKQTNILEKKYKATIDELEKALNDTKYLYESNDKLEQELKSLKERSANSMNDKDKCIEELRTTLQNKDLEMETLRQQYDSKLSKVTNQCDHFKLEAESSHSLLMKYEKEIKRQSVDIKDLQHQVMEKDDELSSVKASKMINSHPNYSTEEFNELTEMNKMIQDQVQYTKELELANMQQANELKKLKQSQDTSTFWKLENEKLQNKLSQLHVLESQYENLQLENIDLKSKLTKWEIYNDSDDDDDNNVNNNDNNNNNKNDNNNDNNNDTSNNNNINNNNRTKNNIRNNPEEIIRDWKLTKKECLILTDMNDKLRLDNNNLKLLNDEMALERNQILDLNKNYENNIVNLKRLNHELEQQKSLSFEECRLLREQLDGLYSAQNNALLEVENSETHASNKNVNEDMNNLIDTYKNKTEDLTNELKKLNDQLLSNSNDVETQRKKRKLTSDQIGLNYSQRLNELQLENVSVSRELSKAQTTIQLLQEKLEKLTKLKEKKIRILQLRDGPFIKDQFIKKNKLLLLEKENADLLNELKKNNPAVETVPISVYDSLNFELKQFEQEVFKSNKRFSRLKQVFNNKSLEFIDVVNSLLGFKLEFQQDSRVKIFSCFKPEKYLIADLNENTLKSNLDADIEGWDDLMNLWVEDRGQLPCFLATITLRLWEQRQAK
Sequence of scMad1^E–scMad2 complex (S. cerevisiae) (P40958 whole entry, chain 2 of 2, further chain): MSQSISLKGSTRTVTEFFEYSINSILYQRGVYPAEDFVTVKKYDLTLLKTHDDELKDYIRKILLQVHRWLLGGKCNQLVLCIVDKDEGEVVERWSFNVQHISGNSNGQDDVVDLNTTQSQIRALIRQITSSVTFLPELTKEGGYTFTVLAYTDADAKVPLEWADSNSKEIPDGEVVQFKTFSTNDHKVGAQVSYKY

Kd: 2200 nM
B1: Mps1-phosphorylated scBub1_(449–530) fragment (domain or fragment)
chain: SRSPTVTAFSKDAINEVFSMFNQHYSTPGALLDGDDTTTSKFNVFENFTQEFTAKNIEDLTEVKDPKQETVSQQTTSTNETN
modifications: phosphothreonine at 453, phosphothreonine at 455, phosphoserine at 458 (mass spectrometry; co-expressed with scMps1)
